# “And” between values parts separate entries of the source, which are not always exact repeats. Equal entries are not always repeated. Where two headings read alike, the source gives them in different places. Ends that are not written are not given here. * marks the point of attachment. FITC = O=C1OC2(c3ccc(O)cc3Oc3cc(O)ccc32)c2ccc(NC(=S)*)cc21
# How the values were obtained:
# [1] = target: soluble HLA-A*0201 (sHLA-A*0201) (human)
# [2] = target: soluble HLA-A*0201 (sHLA-A*0201) (human); remark: listed apart in the source
# [3] = target: soluble HLA-A*0201 (sHLA-A*0201) (human); remark: listed apart in the source
# [4] = target: soluble HLA-A*0201 (sHLA-A*0201) (human); remark: listed apart in the source
# [5] = target: soluble HLA-A*0201 (sHLA-A*0201) (human); remark: listed apart in the source
# [6] = target: soluble HLA-A*0201 (sHLA-A*0201) (human); remark: listed apart in the source
# [7] = target: soluble HLA-A*0201 (sHLA-A*0201) (human); remark: listed apart in the source
# [8] = target: soluble HLA-A*0201 (sHLA-A*0201) (human); remark: listed apart in the source
# [9] = target: soluble HLA-A*0201 (sHLA-A*0201) (human); remark: listed apart in the source
# [10] = target: soluble HLA-A*0201 (sHLA-A*0201) (human); remark: listed apart in the source
# [11] = target: soluble HLA-A*0201 (sHLA-A*0201) (human); test: FP, sHLA-A*0201 titrated against 10 nM FITC-labeled P4, plateau of the fit
# [12] = target: soluble HLA-A*0201 (sHLA-A*0201) (human); test: FP real-time association kinetics, 50 ug/mL sHLA-A*0201, excess b2m, 20 C
# [13] = target: soluble HLA-A*0201 (sHLA-A*0201) (human); test: FP kinetics, Kd = koff/kon
# [14] = target: soluble HLA-A*0201 (sHLA-A*0201) (human); test: FP, sHLA-A*0201 titrated against 10 nM FITC-labeled P4; the EC50 is an sHLA concentration
# [15] = target: soluble HLA-A*0201 (sHLA-A*0201) (human); test: FP real-time association kinetics, intercept of kob against ligand concentration
# [16] = target: soluble HLA-A*0201 (sHLA-A*0201) (human); test: FP, pFITC P4 titrated at 425 nM (20 µg/ml) sHLA-A*0201; FPmin = 27.00 mP
# [17] = target: soluble HLA-A*0201 (sHLA-A*0201) (human); test: FP equilibrium titration with variable pFITC, 425 nM sHLA-A*0201, 20 C
# [18] = target: soluble HLA-A*0201 (sHLA-A*0201) (human); test: FP saturation isotherm (bound against free pFITC), 425 nM sHLA-A*0201, one-site fit
# [19] = target: soluble HLA-A*0201 (sHLA-A*0201) (human); remark: listed apart in the source
# [20] = target: soluble HLA-A*0201 (sHLA-A*0201) (human); remark: listed apart in the source
# [21] = target: soluble HLA-A*0201 (sHLA-A*0201) (human); remark: listed apart in the source
# [22] = target: soluble HLA-A*0201 (sHLA-A*0201) (human); remark: listed apart in the source
# [23] = target: soluble HLA-A*0201 (sHLA-A*0201) (human); remark: listed apart in the source
# [24] = target: soluble HLA-A*0201 (sHLA-A*0201) (human); remark: listed apart in the source
# [25] = target: soluble HLA-A*0201 (sHLA-A*0201) (human); remark: listed apart in the source
# [26] = target: soluble HLA-A*0201 (sHLA-A*0201) (human); test: standardized FP competition against 1 nM FITC-P5, 50 ug/mL sHLA-A*0201, excess b2m
binder,measurement,setting,value
KLGEFYNQMM (modifications not checked),IC50,[1],2480 to 10500 nM
same,IC50,[2],2870 nM
same,IC50,[3],7670 nM
same,log IC50,[4],3.08 log nM and 3.45 log nM
same,IC50,[5],2820 nM
same,log IC50,[6],3.31 log nM and 3.7 log nM and 3.67 log nM
same,IC50,[7],596 nM
same,IC50,[8],2480 nM
same,IC50,[9],10500 nM
same,IC50,[10],3060 nM
"LVFGKEVVEV (not fully specified) [A*0201/P4, FITC-labeled peptide …]",FPmax,[11],230 mP
same,kon,[12],9900 M⁻¹ s⁻¹
same,Kd,[13],28.5 nM
same,EC50,[14],283 nM
same,koff,[15],0.000284 s⁻¹
same,FPmax,[16],200 mP
same,Kd,[17],21.8 nM
same,Bmax,[18],89.7 nM
same,Kd,[18],21.8 nM
DLVHFASPL (modifications not checked),IC50,[5],366000 nM
"ALMDKVLK(FITC)V [A*0201/P5, FITC-labeled peptide ALMDKVL-K(FITC)-V]",% binding,[19],40%
same,increase of signal upon binding,[20],> 900%
same,maximum polarization signal,[20],245 mP
same,FPmax,[21],195 mP
same,EC50,[22],327 nM
same,Kd,[23],17.3 nM
same,maximal FP signal,[24],220 to 230 mP
same,Bmax,[25],141 nM
same,Kd,[25],17.3 nM
YLLPAIVHI (modifications not checked),IC50,[26],510 nM
